Legend:
AR42J tumor = assay: MicroPET imaging in AR42J tumor-bearing mice; type: in vivo; conditions: unlabeled compound injected simultaneously with ^68Ga-DOTA-TATE, PET
Experimental: ^68Ga-TATE-EB-01 was prepared according to the method in Example 2. […] Results are shown in FIG. 4, FIG. 5, FIG. 6 and FIG. 7.

[1] = in vivo; cited from earlier work
in vivo = assay: in vivo; parameters: species or system mice; conditions: mouse, iv, 1.48 Mbq, total radioactivity
Experimental: Organs and tumor tissues of interest were collected and weighed. The radioactivity was detected by a γ counter, and biological distribution results were calculated as a percent of an injection dose per gram of tissue (% ID/g).

With `Cc1cc(-c2ccc(NC(=O)[C@H](CCCCNC(=O)CCOCCOCCC(=O)N[C@H](Cc3ccccc3)C(=O)N[C@H]3CSSC[C@@H](C(=O)N[C@H](C(=O)O)[C@@H](C)O)NC(=O)[C@H]([C@@H](C)O)NC(=O)[C@H](CCCCN)NC(=O)[C@@H](Cc4c[nH]c5ccccc45)NC(=O)[C@H](Cc4ccc(O)cc4)NC3=O)NC(=O)CN3CCN(CC(=O)O)CCN(CC(=O)O)CCN(CC(=O)O)CC3)c(C)c2)ccc1N=Nc1ccc2c(S(=O)(=O)O)cc(S(=O)(=O)O)c(N)c2c1O` (single isomer, unassigned) [TATE-EB-01] the “inhibition of tumor uptake of ^68Ga-DOTA-TATE” value (AR42J tumor) was “significantly inhibit tumor uptake”.

In the case of `Cc1cc(-c2ccc(NC(=O)[C@H](CCCCNC(=O)CCN3C(=O)CC(SCCC(=O)N[C@H](Cc4ccccc4)C(=O)N[C@H]4CSSC[C@@H](C(=O)N[C@H](C(=O)O)[C@@H](C)O)NC(=O)[C@H]([C@@H](C)O)NC(=O)[C@H](CCCCN)NC(=O)[C@@H](Cc5c[nH]c6ccccc56)NC(=O)[C@H](Cc5ccc(O)cc5)NC4=O)C3=O)NC(=O)CN3CCN(CC(=O)O)CCN(CC(=O)O)CCN(CC(=O)O)CC3)c(C)c2)ccc1N=Nc1ccc2c(S(=O)(=O)O)cc(S(=O)(=O)O)c(N)c2c1O` (single isomer, unassigned) [^177Lu-EB-TATE, metal not drawn], the “half-life in the blood” value [1] is listed as 9.47 h and the “half-life in the blood relative to Lutathera” value [1] is listed as “about 4 times”.

Work on `Cc1cc(-c2ccc(NC(=O)[C@H](CCCCNC(=O)CCOCCOCCC(=O)N[C@H](Cc3ccccc3)C(=O)N[C@H]3CSSC[C@@H](C(=O)N[C@H](C(=O)O)[C@@H](C)O)NC(=O)[C@H]([C@@H](C)O)NC(=O)[C@H](CCCCN)NC(=O)[C@@H](Cc4c[nH]c5ccccc45)NC(=O)[C@H](Cc4ccc(O)cc4)NC3=O)NC(=O)CN3CCN(CC(=O)O)CCN(CC(=O)O)CCN(CC(=O)O)CC3)c(C)c2)ccc1N=Nc1ccc2c(S(=O)(=O)O)cc(S(=O)(=O)O)c(N)c2c1O` [^177Lu-TATE-EB-01, metal not drawn] yielded a tissue uptake at 72 h (in vivo) of 158 ± 20 %ID/g and a tissue uptake at 96 h (in vivo) of 112 ± 20.6 %ID/g.
